From article PMC8229081, “A Novel Assay for Phosphoserine Phosphatase Exploiting Serine Acetyltransferase as the Coupling Enzyme” (Life, 2021) come the findings set out here.

Data set [1] addresses T1, human PSP (phosphoserine phosphatase) (Homo sapiens, UniProt P78330).
T1 construct: gene PSPH
T1 sequence (P78330 1-225): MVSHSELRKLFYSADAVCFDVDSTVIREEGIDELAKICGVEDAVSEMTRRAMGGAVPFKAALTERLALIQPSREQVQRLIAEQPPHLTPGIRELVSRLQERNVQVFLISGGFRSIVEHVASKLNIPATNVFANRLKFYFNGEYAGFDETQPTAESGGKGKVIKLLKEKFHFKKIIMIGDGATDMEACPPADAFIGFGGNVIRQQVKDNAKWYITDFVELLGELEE
Particulars: 40 µM L-OPS, 15.7 nM PSP, 3 mM MgCl2, pH 7, 37 °C; product inhibition.

Substrate in data set [2]: N[C@@H](COP(=O)(O)O)C(=O)O
Kind of data set: purified protein. Format: biochemical, Homo sapiens. Particulars: 50 mM HEPES, 100 mM KCl, 3 mM MgCl2, pH 7, 37 °C, 170 µM acetyl-CoA, 0.5 mM DTNB, 430 mU HiSAT removing product L-serine.

Take `O=P(O)(O)O` [phosphate]: the % inhibition (usually the percentage by which the read-out fell short of the control) at 50 mM in data set [1] turned out to be 50%.

B1: human PSP (phosphoserine phosphatase) (Homo sapiens) (protein)
chain: T1 sequence (P78330 1-225)
notes: dimer
For the molecule B1, in data set [2], the Michaelis constant (Km) – broadly, the substrate concentration at which the rate is half of its maximum – is 40.3 ± 2.8 µM; the kcat (as a rule, the number of substrate molecules converted per active site and unit of time at saturation) came to 44.8 ± 0.9 s⁻¹; the kcat/Km – broadly, the second-order rate constant that governs catalysis at low substrate concentration – was 1.11e+06 ± 100000 M⁻¹ s⁻¹.
